We go through 4 molecules from US20070224178A1 (Sanofi, published 2007).

One may read the kon as the second-order rate constant of association. Usually koff stands for the rate constant with which the complex falls apart. As a reminder, the Kd is the equilibrium constant for the complex coming apart. Low readings indicate tighter binding, high ones weaker binding.

The target of assay [1] is Vascular endothelial growth factor (VEGF) (Homo sapiens (Human)) (UniProt P15692). Description: surface plasmon resonance (BIAcore), sFlt-1 construct immobilized on the chip, VEGF165 injected at 0.2 to 15 nM; column Ka. On the technique in general: SPR reads the build-up and loss of mass on a sensor chip optically.
For assay [2] the target is unchanged. Briefly: surface plasmon resonance (BIAcore), sFlt-1 construct immobilized on the chip, VEGF165 injected at 0.2 to 15 nM; column Kd.
Assay [3] shares this target. Briefly: surface plasmon resonance (BIAcore), sFlt-1 construct immobilized on the chip, VEGF165 injected at 0.2 to 15 nM; the column head prints KD (nM), but the printed Kd/Ka (1.22e-3 / 2.71e6) gives about 4.5e-10 M.
Assay [4] deals with T1, Vascular endothelial growth factor (VEGF) (Homo sapiens (Human), UniProt P15692 181-395).
T1 construct: also called VEGF165; VEGF A
T1 sequence: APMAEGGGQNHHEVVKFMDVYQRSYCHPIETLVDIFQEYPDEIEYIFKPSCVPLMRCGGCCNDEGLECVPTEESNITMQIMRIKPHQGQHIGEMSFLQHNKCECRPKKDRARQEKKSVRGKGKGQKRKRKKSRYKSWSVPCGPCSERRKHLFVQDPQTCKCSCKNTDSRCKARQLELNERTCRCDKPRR
Description: solution binding assay: serially diluted conditioned medium with soluble receptor mixed with 10 pM VEGF, unbound VEGF measured by ELISA. Here is the method:
FIG. 11. VEGF “in vitro” binding assay. Conditioned media from 293 cells containing known concentrations of both D2-9Gly-Fc and Flt-1 D(1-3) control soluble receptors (ranging in concentrations from 0.29-150 pM) were serially diluted and mixed with 10 pM VEGF. The amount of unbound VEGF was then measured by ELISA. D2-9Gly-Fc binds VEGF with higher affinity than all other constructs. “n” represents the number of independent experiments (transfection and binding assay).
Briefly, conditioned media containing known concentrations of soluble receptor (ranging in concentrations from 0.29-150 pM) were serially diluted and mixed with 10 pM VEGF. The amount of unbound VEGF was then measured by ELISA. […] D2-CH3 has the lowest affinity to bind VEGF (FIG. 11).
(In an ELISA, binding on a coated surface is turned into a signal by an enzyme label.)

“rFlt-1(Fc)(R&D) (from UniProt P17948-2) (Fc fusion)” showed a kon in assay [1] of 2.71e+06 M⁻¹ s⁻¹. The molecule also gave a dissociation rate constant (koff) in assay [2] of 0.00122 s⁻¹. Moreover, the Kd in assay [3] stood at 448 pM.

B1: D(1-3) (receptor, human (by the accession given in p-0034), UniProt P17948 27-328, looked up)
soluble receptor fragment: SKLKDPELSLKGTQHIMQAGQTLHLQCRGEAAHKWSLPEMVSKESERLSITKSACGRNGKQFCSTLTLNTAQANHTGFYSCKYLAVPTSKKKETESAIYIFISDTGRPFVEMYSEIPEIIHMTEGRELVIPCRVTSPNITVTLKKFPLDTLIPDGKRIIWDSRKGFIISNATYKEIGLLTCEATVNGHLYKTNYLTHRQTNTIIDVQISTPRPVKLLRGHTLVLNCTATTPLNTRVQMTWSYPDEKNKRASVRRRIDQSNSHANIFYSVLTIDKMQNKDKGLYTCRVRSGPSFKSVNTSVHI
notes: soluble fragment, Ig-like domains 1-3; made in conditioned medium of 293 cells; also called Flt-1 D(1-3) control soluble receptor
B1: the “IC50 (read off the curve)” value in assay [4] is roughly 1 pM.

B2: D2-9Gly-Ex3/CH3 (other)
chain: PFVEMYSEIPEIIHMTEGRELVIPCRVTSPNITVTLKKFPLDTLIPDGKRIIWDSRKGFIISNATYKEIGLLTCEATVNGHLYKTNYLTHRQTGGGGGGGGGPSCVPLMRCGGCCNGQPREPQVYTLPPSREEMTKNQVSLTCLVKGFYPSDIAVEWESNGQPENNYKTTPPVLDSDGSFFLYSKLTVDKSRWQQGNVFSCSVMHEALHNHYTQKSLSLSPGK
notes: domain: Flt-1 domain 2; Conditioned medium of transfected 293 cells
Turning to B2, in assay [4], the “IC50 (read off the curve)” value was roughly 0.9 pM.

B3: D2-9Gly-CH3 (other)
chain: PFVEMYSEIPEIIHMTEGRELVIPCRVTSPNITVTLKKFPLDTLIPDGKRIIWDSRKGFIISNATYKEIGLLTCEATVNGHLYKTNYLTHRQTGGGGGGGGGGQPREPQVYTLPPSREEMTKNQVSLTCLVKGFYPSDIAVEWESNGQPENNYKTTPPVLDSDGSFFLYSKLTVDKSRWQQGNVFSCSVMHEALHNHYTQKSLSLSPGK
notes: as for B2
In the case of B3, the “IC50 (read off the curve)” value in assay [4] was roughly 0.5 pM.
